± gives the standard deviation of the averaged measurements.
B1: library; a variant is named by its letters at N, in order (parent)
chain: GCUGUCACCGGUGCUUGGUACGUUAUAUUCAGCCGGUCUGAUGAGUCUNNNNNNAGACGAAACAGC

How the values were obtained:
(6R,S)-folinic acid [1] = variants of: B1; test: normalized RNA/DNA level without ligand (relative to sTRSVctl = 100) (log10 (% of sTRSVctl)); HEK293T overexpressing SLC46A1; higher = less ribozyme self-cleavage, higher mRNA level; conditions: without (6R,S)-folinic acid; ligand present: no
Method in brief: (§1)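 HEK293T cells received ligand, where used, 1 h before being transfected with 4 µg per 6-well well of library plasmids encoding reporter-linked ribozyme switches. After 72 h, RNA was extracted with EDTA and sequenced. RNA level was derived from RNA reads per DNA read, normalized to a spiked-in non-cleaving sequence or the top sequences, then scaled and log-transformed. Values were ×100 then log10, the top set was 25 sequences, and the minimum was 100 DNA reads.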

(6R,S)-folinic acid [2] = variants of: B1; test: normalized RNA/DNA level with ligand (relative to sTRSVctl = 100) (log10 (% of sTRSVctl)); HEK293T overexpressing SLC46A1; ligand concentration (+) RNA-Seq: 6 mM; higher = less ribozyme self-cleavage, higher mRNA level; conditions: with (6R,S)-folinic acid; ligand present: yes
Method in brief: as §1

Row | Variant | normalized RNA/DNA level without ligand (log10) ((6R,S)-folinic acid [1]) | normalized RNA/DNA level with ligand (log10) ((6R,S)-folinic acid [2])
1 | CUCUGG | 2.04 ± 0.021 | 2.04 ± 0.028
2 | CUCUGC | 2.02 ± 0.025 | 2.03 ± 0.027
3 | CUCUGU | 2.0266 ± 0.0016 | 2.037 ± 0.0081
4 | UUGCCG | 1.974 ± 0.0045 | 2.03 ± 0.038
5 | UUGCCC | 2.04 ± 0.031 | 2.03 ± 0.036
6 | UUGCCA | 2.024 ± 0.013 | 2.042 ± 0.02
7 | UUGCCU | 2.07 ± 0.028 | 2.07 ± 0.024
8 | GUGGAA | 1.915 ± 0.0022 | 2.01 ± 0.048
9 | GUGGAU | 1.9394 ± 0.0013 | 2.01 ± 0.035
10 | GUGGAG | 1.86 ± 0.027 | 2 ± 0.041
11 | CUCGGA | 2.044 ± 0.0022 | 2.0131 ± 0.00036
12 | CUCGGU | 2.03 ± 0.034 | 2.02 ± 0.028
13 | CUCGGG | 2.0341 ± 0.00097 | 2.07 ± 0.046
14 | CUCGGC | 2.05 ± 0.027 | 2.04 ± 0.034
15 | CUGCUG | 2.044 ± 0.0052 | 2.03 ± 0.041
16 | CUGCUA | 2.02 ± 0.021 | 2.05 ± 0.031
17 | CUGCUU | 2.046 ± 0.013 | 2.04 ± 0.03
18 | CUGCUC | 2.11 ± 0.053 | 2.02 ± 0.034
19 | GUCGUC | 2.02 ± 0.03 | 2.02 ± 0.034
20 | GUCGUU | 2.029 ± 0.018 | 2.02 ± 0.056
21 | GUCGUG | 1.9677 ± 0.0013 | 2.04 ± 0.029
22 | CUCCUG | 2.07 ± 0.016 | 2.064 ± 0.014
23 | CUCCUU | 2.014 ± 0.016 | 2 ± 0.027
24 | CUCCUC | 2.06 ± 0.057 | 1.99 ± 0.053

Row | Variant | normalized RNA/DNA level without ligand (log10) ((6R,S)-folinic acid [1]) | normalized RNA/DNA level with ligand (log10) ((6R,S)-folinic acid [2])
25 | CUCCUA | 2.02 ± 0.023 | 2.01 ± 0.033
26 | UUCGGA | 1.961 ± 0.0071 | 2.024 ± 0.0051
27 | UUCGGU | 1.962 ± 0.013 | 2 ± 0.021
28 | UUCGGG | 1.86 ± 0.024 | 2.01 ± 0.052
29 | CUGGAC | 1.9905 ± 0.0006 | 2 ± 0.038
30 | CUGGAG | 1.883 ± 0.01 | 1.99 ± 0.029
31 | GUGCGC | 1.965 ± 0.01 | 2.01 ± 0.057
32 | GUGCGG | 1.968 ± 0.014 | 2.0481 ± 0.00061
33 | UUCUUU | 2.047 ± 0.0094 | 2.04 ± 0.035
34 | UUCUUA | 2.032 ± 0.02 | 2.02 ± 0.081
35 | UUCUUG | 1.914 ± 0.0095 | 2.02 ± 0.023
36 | UUCUUC | 2.05 ± 0.028 | 1.996 ± 0.012
37 | AUCUCA | 2.02 ± 0.022 | 2.018 ± 0.0082
38 | AUCUCC | 2.04 ± 0.0049 | 2.03 ± 0.064
39 | AUCUCU | 2.02 ± 0.023 | 2.021 ± 0.0047
40 | GUCUCA | 2.0197 ± 0.0003 | 2.01 ± 0.027
41 | GUCUCU | 2.0436 ± 0.00093 | 2.03 ± 0.044
42 | GUCUCC | 2.032 ± 0.015 | 2.024 ± 0.0098
43 | AUGGGU | 1.82 ± 0.006 | 1.998 ± 0.0034
44 | AUGGGC | 2.014 ± 0.0055 | 2.03 ± 0.041
45 | AUGCUU | 2.006 ± 0.018 | 2.037 ± 0.014
46 | AUGCUC | 2.053 ± 0.0063 | 2.03 ± 0.053
47 | AUGCUG | 1.986 ± 0.003 | 2 ± 0.017
48 | AUGCUA | 2.021 ± 0.0056 | 2.01 ± 0.024

Row | Variant | normalized RNA/DNA level without ligand (log10) ((6R,S)-folinic acid [1]) | normalized RNA/DNA level with ligand (log10) ((6R,S)-folinic acid [2])
49 | UUGGGA | 1.881 ± 0.0033 | 2.03 ± 0.039
50 | UUGGGC | 2.036 ± 0.0078 | 2.037 ± 0.0067
51 | UUGGAC | 1.972 ± 0.015 | 1.98 ± 0.032
52 | UUGGAU | 1.971 ± 0.012 | 2.022 ± 0.012
53 | GUCUAA | 1.978 ± 0.0082 | 1.991 ± 0.014
54 | GUCUAC | 2.004 ± 0.0042 | 2.02 ± 0.027
55 | GUCUAG | 1.97 ± 0.028 | 2.0363 ± 0.0013
56 | CUGAAU | 1.96 ± 0.003 | 1.99 ± 0.045
57 | CUGAAC | 1.99 ± 0.035 | 1.99 ± 0.024
58 | CUGAAG | 1.881 ± 0.0031 | 1.995 ± 0.0079
59 | AUCUAC | 2.013 ± 0.0088 | 2.03 ± 0.039
60 | AUCUAU | 2.0163 ± 0.0016 | 2.03 ± 0.041
61 | AUCUAA | 2.0002 ± 0.0016 | 2.01 ± 0.042
62 | AUCUAG | 1.974 ± 0.013 | 2.021 ± 0.0074
63 | UUCGCU | 1.981 ± 0.014 | 1.99 ± 0.026
64 | UUCGCG | 1.91 ± 0.029 | 1.968 ± 0.0034
65 | UUCGCC | 2.017 ± 0.0095 | 2.01 ± 0.025
66 | UUCGCA | 1.988 ± 0.016 | 2 ± 0.048
67 | CUCGCC | 2.1 ± 0.027 | 2.07 ± 0.054
68 | CUCGCG | 2.038 ± 0.016 | 2.03 ± 0.038
69 | GUCGGC | 2.004 ± 0.0028 | 2.03 ± 0.025
70 | GUCGGG | 1.998 ± 0.011 | 2.05 ± 0.051
71 | GUCGGA | 1.997 ± 0.0032 | 2.02 ± 0.045
72 | GUCGGU | 2.018 ± 0.0045 | 2.06 ± 0.027

Row | Variant | normalized RNA/DNA level without ligand (log10) ((6R,S)-folinic acid [1]) | normalized RNA/DNA level with ligand (log10) ((6R,S)-folinic acid [2])
73 | CUCGUC | 2.15 ± 0.022 | 2.12 ± 0.035
74 | CUCGUG | 1.9917 ± 0.0012 | 2.013 ± 0.018
75 | CUCGUU | 2.0737 ± 0.0011 | 2.0492 ± 0.0012
76 | CUCGUA | 2.004 ± 0.016 | 1.98 ± 0.046
77 | GUGAUU | 2.01 ± 0.024 | 2.02 ± 0.022
78 | GUGAUG | 1.908 ± 0.015 | 1.99 ± 0.035
79 | GUGAUC | 2.03 ± 0.021 | 2.036 ± 0.02
80 | UUGAGC | 2.006 ± 0.005 | 2.05 ± 0.049
81 | UUGAGU | 1.925 ± 0.015 | 1.96 ± 0.025
82 | CUGCAU | 1.9723 ± 0.001 | 1.99 ± 0.044
83 | CUGCAC | 2.037 ± 0.0035 | 2.015 ± 0.014
84 | CUGCAA | 2.037 ± 0.02 | 2.05 ± 0.025
85 | UUGGCU | 2.055 ± 0.0023 | 2.04 ± 0.041
86 | UUGGCC | 2.046 ± 0.019 | 2.03 ± 0.05
87 | UUGGCA | 2.013 ± 0.011 | 2.06 ± 0.035
88 | UUGGCG | 1.8766 ± 0.00065 | 2.03 ± 0.062
89 | AUCGUG | 1.906 ± 0.0026 | 2.01 ± 0.026
90 | AUCGUA | 1.982 ± 0.008 | 1.993 ± 0.013
91 | AUCGUC | 2.106 ± 0.011 | 2.06 ± 0.027
92 | AUCGUU | 2.043 ± 0.0096 | 2.01 ± 0.036
93 | UUGAUA | 1.978 ± 0.0072 | 2.03 ± 0.029
94 | UUGAUU | 2.017 ± 0.012 | 2.027 ± 0.013
95 | UUGAUC | 2.051 ± 0.0013 | 2.01 ± 0.022
96 | GUGAGC | 1.74 ± 0.024 | 1.962 ± 0.011

Row | Variant | normalized RNA/DNA level without ligand (log10) ((6R,S)-folinic acid [1]) | normalized RNA/DNA level with ligand (log10) ((6R,S)-folinic acid [2])
97 | GUGAGU | 1.96 ± 0.025 | 2.03 ± 0.025
98 | GUGACG | 1.95 ± 0.017 | 2 ± 0.032
99 | GUGACU | 2.029 ± 0.0025 | 2.04 ± 0.041
100 | CUGGGG | 1.871 ± 0.005 | 2.007 ± 0.0051
101 | CUGGGC | 2.059 ± 0.0035 | 2.03 ± 0.03
102 | UUGAAC | 2 ± 0.023 | 2.025 ± 0.016
103 | UUGAAU | 1.955 ± 0.0032 | 2.01 ± 0.025
104 | AUCGGU | 1.94 ± 0.02 | 1.96 ± 0.032
105 | AUCGGG | 1.923 ± 0.017 | 2.05 ± 0.047
106 | AUCGGC | 2.054 ± 0.013 | 2.02 ± 0.043
107 | UUGCAC | 2.008 ± 0.015 | 2.02 ± 0.026
108 | UUGCAU | 1.975 ± 0.0029 | 2.01 ± 0.043
109 | UUGCAA | 1.96 ± 0.0066 | 1.987 ± 0.0035
110 | UUGCUG | 1.978 ± 0.004 | 2.01 ± 0.05
111 | UUGCUU | 2.016 ± 0.013 | 2.04 ± 0.04
112 | UUGCUC | 2.046 ± 0.01 | 2.02 ± 0.052
113 | UUGCGG | 1.96 ± 0.02 | 2 ± 0.031
114 | UUGCGC | 2.062 ± 0.007 | 2.079 ± 0.00078
115 | UUGCGA | 1.97 ± 0.022 | 2.02 ± 0.055
116 | UUGCGU | 1.98 ± 0.031 | 2.03 ± 0.032
